Experiments:
[1] = target: recombinant mouse TNFα (mouse) (UniProt P06804); assay: cell-based or functional assay
[2] = target: recombinant human TNFα (rhTNF, Dainippon, Osaka, Japan) (human) (UniProt P01375); assay: Scatchard analysis; direct binding of 125I-labelled antibody to rhTNFα immobilized in a 96-well plate
Chain of UniProt P01375 (P01375 77-233 limits assumed): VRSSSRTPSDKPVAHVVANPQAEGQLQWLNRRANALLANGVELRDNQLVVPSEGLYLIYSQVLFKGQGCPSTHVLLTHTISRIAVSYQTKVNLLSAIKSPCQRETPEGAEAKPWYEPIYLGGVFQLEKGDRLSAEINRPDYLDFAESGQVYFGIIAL

Chain of UniProt P06804 (P06804 80-235 limits assumed): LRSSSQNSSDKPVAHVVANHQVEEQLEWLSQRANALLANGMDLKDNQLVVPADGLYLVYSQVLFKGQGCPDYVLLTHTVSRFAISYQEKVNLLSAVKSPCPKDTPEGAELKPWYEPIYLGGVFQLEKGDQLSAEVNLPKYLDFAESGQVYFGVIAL

Ka [2] [M⁻¹]	Substance	neutralizing titre: concentration required to cause 50% inhibition of killing of WEHI 164 cells by trimeric recombinant murine TNFα (60 pg/ml mouse TNFα) [1] [ng/mL]
–	TN3-19.12, neutralizing hamster IgG1 anti-TNFα/β monoclonal antibody	62
–	TNF receptor/IgG fusion protein p55-sf2 (from UniProt P19438 30-211; P01857 1-330) (Fc fusion)	0.6
1.8e+09	chimeric A2 (cA2), chimeric monoclonal anti-TNF antibody	–
